Results published in patent US11230704B2, “Oxidation of highly unsaturated fatty acids with novel 8-lipoxygenase derived from Malacostraca” (Bizen Chemical Co., Ltd., priority 2018, dated 2022).

Key:
[1] = system: peroxisome proliferator-activated receptor (PPAR); settings: background statement, Non Patent Literature 1; cited from earlier work
[2] = Measurement of activity of PK LOX1: arachidonic acid added to medium of PK LOX1 expressing Sf9 insect cells, LC-QTOFMS of cell extract; assay type: cell-based; settings: 50 μM, 4 hours; FIG. 6C
Method: (§1) A P1 baculovirus stock prepared by cryopreserving a culture supernatant of Sf9 insect cells transduced with bacmid expressing PK LOX1 was added to a medium of Sf9 insect cells and cultured for 1 week. 50 μM of arachidonic acid, eicosapentaenoic acid, or docosahexaenoic acid was added to the medium of baculovirus infected cells, and the cells were centrifuged and collected after 4 hours of culture. After removing the medium from the Sf9 cells and adding acetonitrile to the cells and sonicating the cells, the solution was centrifuged for 10 minutes at 20,000 g, and the supernatant was used as an extract. 5 μL of the extract was subjected to high performance liquid chromatography/mass spectrometry system (LC-QTOFMS: Agilent) to analyze 8-HETE, 8-HEPE, and 10-HDoHE. […] The 8-HETE content after adding an arachidonic acid, 8-HEPE content after adding an eicosapentaenoic acid, and 10-HDoHE content after adding a docosahexaenoic acid are higher in a PK LOX1 expressing Sf9 insect cell extract compared to an extract of EGFP expressing Sf9 insect cells used as a control. It was confirmed that 8-HETE, 8-HEPE, and 10-HDoHE production is induced by PK LOX1 expression (FIG. 6C).

[3] = Measurement of activity of PK LOX1: EPA added to medium of PK LOX1 expressing Sf9 insect cells, LC-QTOFMS of cell extract; assay type: cell-based
Method: as §1

[4] = Measurement of activity of PK LOX1: docosahexaenoic acid added to medium of PK LOX1 expressing Sf9 insect cells, LC-QTOFMS of cell extract; assay type: cell-based; settings: 50 μM, 4 hours; FIG. 6C
Method: as §1

[5] = Measurement of activity of PK LOX2: thawed PK LOX2 expressing Sf9 cell pellets incubated with EPA, LC-QTOFMS; assay type: biochemical, Sf9 cells
Method: A baculovirus stock expressing PK LOX2 obtained by the same method as PK LOX1 in Example 3 was prepared. Sf9 cells were infected therewith. After washing the Sf9 cells after two days from infection with PBS and centrifuging the cells at 1500 g, the cells were frozen at −80° C. after removing the PBS. 50 μL of 200 mM Tris-HCl (pH of 7.4) supplemented with EPA at a concentration of 50 μM was added to PK LOX2 expressing Sf9 cell pellets thawed on ice, and the pellets were incubated for 4 hours at 27° C. After adding 150 μL of acetonitrile (containing 1% formic acid) to the incubated solution and vortexing the solution, the solution was centrifuged for 10 minutes at 4° C. at 20,000 g. The supernatant was collected and 5 μL thereof was subjected to LC-QTOFMS to analyze 8-HEPE.

With `CCC=CCC=CCC=CC=CC(O)CC=CCCCC(=O)O` (centres unmarked) [8-HEPE, 8-hydroxyeicosapentaenoic acid] as the molecule, how does the “PPAR activating action compared with EPA” value [1] read?
The value was “higher peroxisome proliferator-activated receptor (PPAR) activating action than EPA”.

B1: PK LOX1: lipoxygenase isolated from Euphausia pacifica, 691 amino acids, SEQ ID NO: 2, expressed His-tagged in Sf9 insect cells (protein, listed as Euphausia pacifica)
chain: MAPIKEKKSFKLTAATGNQDGAGTDANVYVTFEDEEGRRTKEKKLDKLLYNDLEKGKKDKYDINAPVEFGAVKKLHVHRDSTGLGDSWFCDYFEIKDLRFKGNNNEPSPTKKEYYYFPIHRWISSQHRYEFDEYGTCLPQADPCIGPRKADLEAKKSSYNYVYRIGAMAATDTTDACVGHCAQVETLPADEKFSEDYYWNFATDKLKLLAETKWMEWTNQTKWNSLSDLRSVYKKSLGEPKCLDVWREDWWFGLQRLQGVNPVIIELCTQIPDNLAVTDTTVEGLMDDLTLNEALENKKIFICDLKIMDGLCCKENRELAAPLALFYLNKENKLLPIALQLKQEKGDDNPVFTPKDSKNTWLVAKMFYNNSEAQHHQALTHLGYTHLLMEGVVVCTHRNLSPSHPLFKLMAPHFLFLLAINSRGLEKLVSEGGWVDCCMTQGLCGILDLMKRGFEAWTYTKFGSVSAELEARGVLNKDVLPYYPYRDDALPLFAEIRKYVKTIVEHHYDNEDKMKEDWELKSWREELAKQRSENGVGLADIPGSKEDGFNSVDEVVDVVTMIISTCSLGHAASNFQQYEQYGYVPNYPGILMSTLPKEKKEYTEEEIMQILPDKRMTLDIMVITKLLSTKGTQSLGDFEMQYLYDPVGVQAAKDFRKNLDRLSKKNKLENVDRQWDFDWLDPEFVPNAISV
modifications: His tag
With B1 as the molecule, how does the “8-HETE content after adding an arachidonic acid, compared to extract of EGFP expressing Sf9 insect cells (control)” value [2] read?
The value was “higher”.

And the “8-HEPE content after adding an eicosapentaenoic acid, compared to extract of EGFP expressing Sf9 insect cells (control)” value ([3]; 50 μM, 4 hours, FIG. 6C)?
Its value is “higher”.

And the “production of 8-HEPE in cell extract” value ([3]; EPA 50 μM added, 4 hours of culture, FIG. 6A)?
Its value is “Production of 8-HEPE was observed”.

And the “activity compared with specific activity of lipoxygenases known in the art” value ([3]; PK LOX1 expressing Sf9 cells)?
The value was “markedly stronger than the specific activity of lipoxygenases known in the art”.

What about the “position specificity of oxidation of EPA” value ([3]; only one peak of m/z=317.22, retention time and MS/MS match 8-HEPE standard, FIG. 6A, 6B) of the same molecule?
Its value is “catalyzed position 8 specific oxidation of EPA”.

And the “specific activity of lipoxygenase (8-HEPE/PK LOX1 expressing Sf9 cell protein)” value ([3]; printed as 'up to about', 50 μM substrate, 4 hours of culture, FIG. 6C)?
Its value is “about 2.5 μg/mg”.

And the “10-HDoHE content after adding a docosahexaenoic acid, compared to extract of EGFP expressing Sf9 insect cells (control)” value [4]?
Its value is “higher”.

B2: PK LOX2: lipoxygenase isolated from Euphausia pacifica, 686 amino acids, SEQ ID NO: 4, expressed His-tagged in Sf9 insect cells (protein, listed as Euphausia pacifica)
chain: MVALRCFKPEEMHIFTICGLFLAAMEVSNAYLCNNNFLVTVKTGYGTDAGSNASVILVLEDQNRNEIRNWLSIPKQDETGNHRIPIPTSFGRIVTVELALDYKLAPDWYCEDIFIEDPRLNDRLYFPIDRRIQGNQFYDFQNYATCLPQFDQNSISRRLTLQKKREDYQLSYDRTAAMVKDLPQDEIFHQDYISSIRAIQKTSIDDQIPLLQAWQSSNNISAFFGGDFYMPQSIQFWKEDAWFGAQRVQGIVPNIIELCKQIPDKLGVTEDTISGLLEGSTLQQALKNNKIFISDLELLDGIQYSGVWSDNADHAAPISVFYLNKIDQLMPIAIQLRQQKGPKNPVYTPKDPPNTWLVAKIYYNNAESQFHQILVHFGYTHMIMDGIATSMNRQLSPSHPVFKILKPHFLYLLAINRLGEQELFVPQGVFPYFSIGLDGMNQLLAKAVPQFTLARAIGSVESDARARGVWDKQVLPYYPFRDDAHSMYNIIKKYATKVIYYYYNTPGKIINDMELQRWRTELAKPRAQGGVGIPDLPGSDTAGFRDINEIIDLVTTIITHSSVGHAAVNFPMYDTYGYFPNYPPDLNEGPPLQKMLYTEDEIMSLFPNGSHAFRVRATIRVLSWQGTNDCGDFEKIYLYDPVSQEAQVELRKDLAMFSKEVMNRNSKRFIPYKYLDPNYVPNAISI
modifications: His tag
Which results are given for B2?
8-HEPE production ([5]; EPA 50 μM, 4 hours at 27° C., FIG. 7): 8-HEPE production was observed; activity compared with specific activity of lipoxygenases known in the art ([5]; PK LOX2 expressing Sf9 cells): markedly stronger than the specific activity of lipoxygenases known in the art; specific activity of lipoxygenase (8-HEPE/PK LOX2 expressing Sf9 cell protein) ([5]; printed as 'up to about', EPA 50 μM, 200 mM Tris-HCl pH 7.4, 4 hours at 27° C., FIG. 7): about 3.2 ng/mg
